In the supplement of paper PMC9876800:

Tested on: peptide library, one residue held at a place counted from the S/T acceptor
Test: relative phosphorylation of the sub-library (ratio to the mean residue at this position); higher = residue favoured
Conditions: human
Outline: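 Spots on streptavidin membranes were phosphorimaged and quantified by densitometry to measure phosphorylation of biotinylated degenerate peptide sub-libraries by purified recombinant kinases, human or orthologue constructs. The reactions ran in 384-well plates for 90 min under kinase-specific conditions, with peptides at 50 μM and 50 μM ATP spiked with γ-32P-ATP. Relative sub-library phosphorylation is the ratio to the mean residue at that position.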

Chain of PLK3, construct: Full length (Q9H4B4 whole entry, looked up): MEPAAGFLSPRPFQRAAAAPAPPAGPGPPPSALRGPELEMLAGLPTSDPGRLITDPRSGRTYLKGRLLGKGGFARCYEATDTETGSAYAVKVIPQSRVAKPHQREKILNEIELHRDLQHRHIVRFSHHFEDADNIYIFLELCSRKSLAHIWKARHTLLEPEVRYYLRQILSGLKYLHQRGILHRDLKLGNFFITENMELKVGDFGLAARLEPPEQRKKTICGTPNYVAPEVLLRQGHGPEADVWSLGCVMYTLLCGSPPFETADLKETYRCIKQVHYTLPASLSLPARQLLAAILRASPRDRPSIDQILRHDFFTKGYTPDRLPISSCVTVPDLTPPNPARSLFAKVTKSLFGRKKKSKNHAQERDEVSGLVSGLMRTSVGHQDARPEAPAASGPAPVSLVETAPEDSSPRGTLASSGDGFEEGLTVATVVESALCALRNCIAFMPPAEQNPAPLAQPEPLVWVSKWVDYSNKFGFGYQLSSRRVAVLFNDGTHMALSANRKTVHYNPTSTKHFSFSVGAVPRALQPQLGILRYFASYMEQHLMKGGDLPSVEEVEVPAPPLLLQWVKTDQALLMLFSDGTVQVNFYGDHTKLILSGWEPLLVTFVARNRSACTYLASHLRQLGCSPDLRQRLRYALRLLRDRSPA
Chain of AKT1, construct: aa109-end (P31749 109-480, looked up): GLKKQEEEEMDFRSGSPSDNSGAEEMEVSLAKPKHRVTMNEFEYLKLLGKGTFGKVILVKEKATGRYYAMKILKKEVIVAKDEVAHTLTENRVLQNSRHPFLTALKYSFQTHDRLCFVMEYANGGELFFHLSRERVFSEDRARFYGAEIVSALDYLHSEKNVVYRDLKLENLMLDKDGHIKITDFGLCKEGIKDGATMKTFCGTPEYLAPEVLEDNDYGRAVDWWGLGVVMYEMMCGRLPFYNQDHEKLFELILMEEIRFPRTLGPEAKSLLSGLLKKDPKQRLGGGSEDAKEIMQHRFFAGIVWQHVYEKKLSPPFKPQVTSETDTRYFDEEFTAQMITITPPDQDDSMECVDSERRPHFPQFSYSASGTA
Chain of DCLK2, construct: aa1-690 (Q8N568 1-690, looked up): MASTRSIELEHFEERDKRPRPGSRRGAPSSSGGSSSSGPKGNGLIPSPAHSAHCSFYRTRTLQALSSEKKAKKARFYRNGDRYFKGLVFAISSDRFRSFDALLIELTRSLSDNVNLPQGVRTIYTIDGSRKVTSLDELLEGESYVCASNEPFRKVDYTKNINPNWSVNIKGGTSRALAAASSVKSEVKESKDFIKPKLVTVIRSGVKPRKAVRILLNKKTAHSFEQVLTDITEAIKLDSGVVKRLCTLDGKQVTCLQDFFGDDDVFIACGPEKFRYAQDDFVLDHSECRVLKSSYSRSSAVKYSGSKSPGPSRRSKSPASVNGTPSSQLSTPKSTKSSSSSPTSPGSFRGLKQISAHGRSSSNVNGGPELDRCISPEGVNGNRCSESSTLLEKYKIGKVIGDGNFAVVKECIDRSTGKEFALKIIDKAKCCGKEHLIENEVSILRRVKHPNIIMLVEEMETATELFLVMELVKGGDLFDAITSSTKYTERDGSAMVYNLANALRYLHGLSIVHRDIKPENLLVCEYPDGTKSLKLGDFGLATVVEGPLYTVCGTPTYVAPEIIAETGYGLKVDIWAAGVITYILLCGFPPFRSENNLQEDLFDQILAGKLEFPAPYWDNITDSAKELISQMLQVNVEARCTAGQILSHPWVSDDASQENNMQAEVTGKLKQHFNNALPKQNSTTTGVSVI

DCLK2, construct: aa1-690 (from UniProt Q8N568)
relative phosphorylation
Conditions	at +1	at +2	at +3	at +4	at -1	at -2	at -3	at -4	at -5
A fixed	0.573	0.702	0.791	0.84	0.731	1.26	0.798	1.03	0.816
D fixed	0.373	0.373	0.673	0.855	0.669	0.725	0.372	0.573	0.437
E fixed	0.414	0.304	0.701	0.838	0.436	1.56	0.427	0.748	0.4
F fixed	3.73	1.72	1.17	1.22	0.853	0.659	0.406	0.988	1.55
G fixed	0.532	0.412	0.887	0.922	1.31	1.08	0.589	1.11	0.76
H fixed	0.815	1.63	1.19	0.987	1.2	0.934	0.831	1	0.907
I fixed	0.918	1.35	0.815	0.917	0.522	0.437	0.33	0.885	1.1
K fixed	1.18	0.639	1.35	1.28	2.27	1.9	3.49	1.8	1.36
L fixed	0.882	1.26	1.09	1.16	0.884	0.687	0.436	0.99	1.47
M fixed	1.4	1.07	1.02	1.12	0.804	0.909	0.484	0.947	1.15
N fixed	0.77	0.49	0.91	0.93	1.16	1.1	0.581	0.784	0.649
P fixed	0.371	0.522	0.727	1.19	0.981	0.423	0.701	0.977	0.946
Q fixed	0.915	0.531	0.947	1.01	0.863	1.79	0.787	1.04	0.802
R fixed	0.903	0.554	1.37	1.05	2.06	1.65	5.46	1.32	1.44
V fixed	0.702	1.1	0.923	0.758	0.554	0.462	0.315	0.941	0.923
W fixed	1.22	1.42	1.27	1.09	0.621	0.725	0.549	0.914	1.17
Y fixed	1.3	2.91	1.17	0.846	1.09	0.695	0.447	0.942	1.12
pThr fixed	0.782	0.935	1.04	0.993	0.455	0.391	0.374	0.652	0.506
pTyr fixed	0.776	7.04	1.07	0.687	0.515	0.367	0.298	0.548	0.576

PLK3, construct: Full length (from UniProt Q9H4B4)
relative phosphorylation
Conditions	at +1	at +2	at +3	at +4	at -1	at -2	at -3	at -4	at -5
A fixed	0.585	0.878	0.681	0.695	0.828	0.711	0.85	0.948	1.07
D fixed	0.463	1.91	1.91	1.6	1.79	3.16	1.45	1.38	1.13
E fixed	0.565	1.84	2.75	1.82	1.45	1.99	3.4	1.38	1.09
F fixed	3.8	1.14	0.839	1.09	0.798	0.831	1.1	0.963	1.08
G fixed	0.491	0.475	0.766	0.819	0.519	0.688	0.865	1.05	1.16
H fixed	0.771	1.02	1.06	0.913	1.1	0.865	1.11	0.945	1.09
I fixed	0.989	1.01	0.724	0.928	0.886	0.364	0.515	0.905	0.795
K fixed	0.517	0.343	0.519	0.61	0.76	0.418	0.535	0.932	1.2
L fixed	1.06	0.92	0.831	1.21	0.966	0.654	1.08	1.1	0.85
M fixed	1.75	1.13	0.767	1.09	1.02	0.773	1.11	0.878	0.848
N fixed	0.526	0.973	1.16	0.935	1.3	2.15	0.842	1.02	1.11
P fixed	0.196	0.444	0.598	1.03	0.965	0.517	0.585	0.844	1.04
Q fixed	0.93	0.714	0.876	0.881	0.929	1.06	0.778	0.831	0.757
R fixed	0.87	0.56	0.642	0.706	1.06	0.592	0.597	0.906	1.13
V fixed	0.814	0.806	0.706	0.656	0.928	0.437	0.476	0.834	0.769
W fixed	1.04	1.51	1.1	1.12	0.566	0.654	0.934	1.19	0.964
Y fixed	1.62	1.34	1.07	0.888	1.12	1.13	0.768	0.89	0.931
pThr fixed	1.18	1.97	1.44	2.41	0.624	0.625	0.835	1.08	0.914
pTyr fixed	1.06	6.48	2.1	2.03	3.06	0.735	1.01	1.17	1.11

AKT1, construct: aa109-end (from UniProt P31749)
relative phosphorylation
Conditions	at +1	at +2	at +3	at +4	at -1	at -2	at -3	at -4	at -5
A fixed	0.492	0.908	0.834	0.83	0.739	0.942	0.543	0.894	0.938
D fixed	0.294	0.547	0.499	0.752	0.726	0.143	0.165	0.567	0.639
E fixed	0.292	0.394	0.537	0.53	0.387	0.132	0.164	0.703	0.639
F fixed	2.31	0.76	1.03	0.662	0.832	0.504	0.271	0.734	0.929
G fixed	0.657	1.07	1.21	1.01	1.32	0.592	0.453	1.03	1.01
H fixed	0.791	1.56	1.3	1.13	1.18	0.839	0.837	1.02	1.11
I fixed	1.7	1.02	0.838	0.646	0.337	0.414	0.245	0.66	0.74
K fixed	0.854	1.3	1.56	1.95	1.78	2.18	2.33	1.85	1.61
L fixed	1.22	1.13	0.826	0.786	0.978	1.02	0.295	0.75	0.789
M fixed	1.69	0.787	0.839	0.773	1.13	0.498	0.282	0.9	0.859
N fixed	0.924	1.08	1.06	1.1	1.44	0.444	0.332	0.804	0.795
P fixed	0.36	0.733	0.833	1.57	1.04	0.303	0.507	0.91	1.03
Q fixed	1.08	0.903	0.964	1.25	1.01	0.546	0.56	0.91	0.835
R fixed	0.952	1.95	1.94	1.84	1.75	7.28	9.07	2.75	2.58
V fixed	1.4	1.11	0.782	0.702	0.449	0.44	0.238	0.757	0.727
W fixed	1.12	0.831	0.963	0.884	0.663	0.332	0.352	0.972	0.893
Y fixed	0.853	0.913	0.979	0.593	1.24	0.392	0.355	0.785	0.877
pThr fixed	0.455	0.493	0.573	0.668	0.301	0.348	0.322	0.767	0.724
pTyr fixed	0.575	0.645	0.577	0.447	0.9	0.273	0.299	0.692	0.728
